The source of these data is the nanobody polyreactivity screen of Harvey et al. (2022).

This data set in a line: yeast display, Sf9 membrane polyspecificity reagent, FACS + sequencing; frameworks hold sequencing errors. The method, boiled down:
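In a synthetic yeast display library (Saccharomyces cerevisiae BJ5465), nanobody expression was induced with galactose for 36–48 hours. FACS gates were set low and high (top ~1%) using anti-HA fluorescence for expression and streptavidin fluorescence for binding of the Sf9 membrane reagent. Each polyreactivity label is drawn from the gate of origin.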
Regarding “QVQLVESGGGLVQAGGSLRLSCAASGLTFQYYTMGWYRQAPGKERELVAAINWSGGSTYYADSVKGRFTISRDNAKNTVYLQMNSLKPVDTAVYYCNAVRFVEHDYWGQGTQVTVSS”, the “polyreactivity (PSR sort gate)” value was “high polyreactivity”.
The same measure for “QVQLVESGGGLVQAGGSLRLSCAASGLTFRINTMGWYRQAPGKERELVASISKSGSSTYYADSVKGRFTISRDNAKNTVYLQMNSLKPEDTAVYYCAARTRTLYVTYYSWGQGTQVTVSS”: “high polyreactivity”; for “QVQLVESGGGLVQAGGSLRLSCAASGLTFRKYAMGWYRQAPGKERELVAAITGSGGRTYYADSVKGRFTISRDNAKNTVYLQMNSLKPEDTAVYYCAADDYFHDDYCGQGTQVTVSS”: “high polyreactivity”.
The same measure for “QVQLVESGGGLVQAGGSLRLSCAASGLTFRKYAMGWYRQAPGKERELVATISRNGGSTYFADSVKGRFTISRDNAKNTVYLQMNSLKPEDTAVYYCAADYYTYDYAGYGYWGQGTQVTVSS”: “high polyreactivity”.
Take “QVQLVESGGGLVQAGGSLRLSCAASGLTFRRYAMGWYRQAPGKERELVAAISSSGGNTYYADSVKGRFTISRDNAKNTVYLQMNSLQPEDTAVYYCATRYKSPSFDYWGQGTQVTVSS”: the “polyreactivity (PSR sort gate)” value is recorded as “high polyreactivity”.
The same measure for “QVQLVESGGGLVQAGGSLRLSCAASGLTFRSYTMGWYRQAPGKERELVAAISSGGSTYYADSVKGRFTISRDNAKHTVYLKMNSRKPEDTAVYYCAAPRGHGKYYSWGQGTQVNVSS”: “high polyreactivity”; for “QVQLVESGGGLVQAGGSLRLSCAASGLTFRSYTMGWYRQAPGTERELVAAISSGGSTYYADSVKGRFTISRDNAKNTVYLQMNSLKPEDTAVYYCAAPRGHGKYYSWGQGTQVTVSS”: “high polyreactivity”.
Turning to “QVQLVESGGGLVQAGGSLRLSCAASGLTFRTYAMGWYRQAPGKERELVAAITWSGDSTYADSVKGRFTISRDNAKNTVYLQMNSLKPEDTAVYYCATKGYFSYHPYDYWGQGTQVTVSS”, the “polyreactivity (PSR sort gate)” value is “low polyreactivity”.
The same measure for “QVQLVESGGGLVQAGGSLRLSCAASGLTFRVYAMGWYRQAPGKERELVASISRTGSTTYADSVKGRFTISRDNAKNTVYLQMNSLKPEDTAVYYCNARYYVLLWDSLAREYWGQGTQVTVSS”: “high polyreactivity”; for “QVQLVESGGGLVQAGGSLRLSCAASGLTFRWYALGWFRQATGKERELVAAISSGGRTYYADSVKGRFTISRDNANNTVYLQMNSRKPEDTAVYYCNKRTLDYGFGSYGREYWGQGTQVTVSS”: “high polyreactivity”; for “QVQLVESGGGLVQAGGSLRLSCAASGLTFRWYAMGWYRQEPGKERELVAAISSSGNTNYADSVKGRFTISRDNAKNTVYLQMNSLKPGDSAVYYCAASYYSYPPGLSQTRLTYYYWGQGTQLTVSS”: “high polyreactivity”.
The same measure for “QVQLVESGGGLVQAGGSLRLSCAASGLTFRYNAMGWYRQAPGKERELVARISRNGGRTYYADSVKGRFTISRDNAKNTVYLQMNSLKPEDTAVYYCNVVYFVTTSPCYDYWGQGTQVTVSS”: “high polyreactivity”.
The result for “QVQLVESGGGLVQAGGSLRLSCAASGLTFRYYTMGWYRQAPGKERELVASITSGGITYYADSVKGRFTISRDNAKNTVYLQMNSLKPEDTAVYYCAKGSYRTTYGALGVKFGYWGQGTKVTVSS” reads “high polyreactivity”; that for “QVQLVESGGGLVQAGGSLRLSCAASGLTFRYYTMGWYRQAPGNERELVASSTSGGITYYADSVKGRFTISRDNAKNTVYLQMNSLKPEDPAVYYCAKGSYRTTYGALGVKYGYWGQGTQVTVSS”, “high polyreactivity”; that for “QVQLVESGGGLVQAGGSLRLSCAASGLTFSCYAMGWYRQAPGKERELVASINYSGANTYYADSVKGRFTISRDNAKNTVYLQMNSLKPEDTAVYYCNTRRRRYQNERVTYDYWGQGTQVTVSS”, “high polyreactivity”.
As to “QVQLVESGGGLVQAGGSLRLSCAASGLTFSDYAMGWYRQAPGKERELVAAITWRGTSTYYADSVKGRFTISRDNAKNTVYLQMNSLKPEDTAVYYCAARKYTGSGTRYYYWGQGTQVTVSS”, the “polyreactivity (PSR sort gate)” value is recorded as “high polyreactivity”.
The same measure for “QVQLVESGGGLVQAGGSLRLSCAASGLTFSDYTMGWYRQAPGKERELVAAISDSTGSTYYADSVKGRFTMSRDNAKNTVYLQMNSLKPEDTAVYNCIAYGYYHRLYSYTYGYWGQGTQVTVSS”: “low polyreactivity”.
The result for “QVQLVESGGGLVQAGGSLRLSCAASGLTFSGNTMGWYRQAPGKVRELVAAISSDGSTNYADSVKGRFTISRDNAKNTVYLQMNSLKPEDTAVYYCNARVRYYFAFWRDYWGQGTQVTVSS” reads “low polyreactivity”.
“QVQLVESGGGLVQAGGSLRLSCAASGLTFSKNAMGWYRQAPGKERELVATISYSSSRTNYADSVKGRFTISRDNAKNTVYLQMNSLKPEDTAVYYCAARVYKGWPTHYDYWGQGTQVTVSS”: the “polyreactivity (PSR sort gate)” value is “high polyreactivity”.
As for “QVQLVESGGGLVQAGGSLRLSCAASGLTFSLNAMGWYRQAPGKERELVAAIRGSGGSTYYADSVKGRFTISRDNAKNTVYLQMNCLKPEDTAVYYCNADQLVWQRYGVLYEYDYWGQGTQVTVSS”, the “polyreactivity (PSR sort gate)” value was “high polyreactivity”.
“QVQLVESGGGLVQAGGSLRLSCAASGLTFSLYALGWYRQAPGKERELVAAISWTGGSTYYADSVKGRFSISRDNAKNTVYLQMKSLKPEDTAVDYCNARYTLFARYGYDYWGQGTQVTVSS”: the “polyreactivity (PSR sort gate)” value is “low polyreactivity”.
The same measure for “QVQLVESGGGLVQAGGSLRLSCAASGLTFSLYAMAWYRQAPGNESELVAANSWTGGSTYYADSVKGRFTISRDNAKNTVYLHMNSLKPEDTAVYYCNARYTLFARYGYDYWGQGTQVTVSS”: “low polyreactivity”; for “QVQLVESGGGLVQAGGSLRLSCAASGLTFSNYAMGWYRQAPGKERELVAAISASGGSTYYADSVKGRFTISRDNAKNTVYLQMNSLKPEDTAVYYCAAATTRPVYPANDDYWGQGTQVTVSS”: “low polyreactivity”.
The result for “QVQLVESGGGLVQAGGSLRLSCAASGLTFSRNAMGGYRQAPGKERELVAGISVSGSITFYADSVKGRFTISRDNAKNTVYLQMNSLKPEDTAVYYCAARYRYRYTPSVTGYDYWGQGTQVTVSS” reads “high polyreactivity”; that for “QVQLVESGGGLVQAGGSLRLSCAASGLTFSRNAMGWYRRAAGKERELVAAITKSGARTYYADSVKGRFTISRDNAKNTVYLQMNSLKPEDTAVYYCAADALNTYYYWGQGTQVTVSS”, “high polyreactivity”.
With “QVQLVESGGGLVQAGGSLRLSCAASGLTFSSYTMGWYRQAPGKERELVAAISSGGSTYYADSVKGRFTISRDNAKNTVYLQMNSLKPEDTAVYYCAAAFRYTPLSDHGYWGQGTQVTVSS”, the “polyreactivity (PSR sort gate)” value is on record as “high polyreactivity”.
With “QVQLVESGGGLVQAGGSLRLSCAASGLTFSVYAMGWYREAPGKERELVAGITSSVGDTYYADSVKGRFTISRDNAKNTVYLQMNSLKPEDTAVYYCNAKYRTFVSKHDYWGQGTQLTVSS”, the “polyreactivity (PSR sort gate)” value is on record as “low polyreactivity”.
The result for “QVQLVESGGGLVQAGGSLRLSCAASGLTFSVYTMGWYRQAPGKERELVAAITTSGGRTYYADSVKGRFTISRDNAKNTVYLQMNSLKPEDTAVYYCAAVRTGDTTGTMGYWGQGTQVTVSS” reads “high polyreactivity”.
The same measure for “QVQLVESGGGLVQAGGSLRLSCAASGLTFSYYAMGWYRQAPGKERELVAAISGRGSTYYADSVKGRFTISRDNAKNTVYLQMNSLKPEDTAVYYCNAYGRFGLYDYWGQGTQVTVSS”: “high polyreactivity”.
The same measure for “QVQLVESGGGLVQAGGSLRLSCAASGLTFSYYARGWYRQAPGKERELVAAISWSGDSTYYADSVKGRFTISRDNAKNTVYVQMHSLKPEDTAVYYCAVVSDFYTPYTGWPFLDYEYWGQGTQVTVSS”: “low polyreactivity”; for “QVQLVESGGGLVQAGGSLRLSCAASGLTFTLNAMGWYRQAPGKERELVATISQDGGGTTYADSVKGRFTISRDNAKNTVYLQMNSLKPEDTAVYYCATTLPPSVWGEWSGTRYPYDYWGQGTQVTVSS”: “low polyreactivity”.
“QVQLVESGGGLVQAGGSLRLSCAASGLTFTTYAMGWYRQAPGKERELVAAISRRGSRTYYADSVKGRFTISRDNAKNTVYLQMNILKPEDTEVYYCNAMTGSFKTYSFDYWGHGTQVTVSS”: the “polyreactivity (PSR sort gate)” value was “high polyreactivity”.
The result for “QVQLVESGGGLVQAGGSLRLSCAASGLTFTWYTMGWYRQAPGKERELVAAITSGGSTNYADSVKGSFTISRDNAKNTVYLQMNSLKPEDTAVYYCAASRTFYWWEYGYWGQGTQVTVSS” reads “high polyreactivity”; that for “QVQLVESGGGLVQAGGSLRLSCAASGLTFVANAMGWYRQAPGKERELVAAIDYGGGHTYYADSVKGRFTISRDYAKNTVYLQMNSLKPEDTAVYYCAVGLPHGGRRLYGSWYRFDYWGQGTQVTVSS”, “low polyreactivity”; that for “QVQLVESGGGLVQAGGSLRLSCAASGLTFVANAMGWYRQAPGKERELVAAISRRGTRTYYADSVKGRFTISRDNAKNTVYLQMNSLKPEDTAVYYCAAEYNSEYDYWGQGTQVTVSS”, “high polyreactivity”.
The same measure for “QVQLVESGGGLVQAGGSLRLSCAASGLTFVDNAMGWYRQAPGKERELVAAISYNGGSTYYADSVMGRFTISRDNAKNTVYLLMNSLKPEDTAVYYCAADISVGRYGDMDYWGQGTQVTVSS”: “low polyreactivity”.
The same measure for “QVQLVESGGGLVQAGGSLRLSCAASGLTFVDNAMGWYRQAPGKESELVAAITKRGGRTYYADSVKGRFTISRDNAKNTFYLQMNSLKPEDTAVYYCARESGNDSSRRLDYWGQGTQVTVSS”: “low polyreactivity”.
“QVQLVESGGGLVQAGGSLRLSCAASGLTFVDYAMGWYRPAPGKERELVAGISYSGGSTYYADSVKGRFTISRDNAKNTVYLQMNSLKPEDTAVYYCAAKYRRPRYGYWGQGTQVTVSS”: the “polyreactivity (PSR sort gate)” value is listed as “high polyreactivity”.
The same measure for “QVQLVESGGGLVQAGGSLRLSCAASGLTFVKNAMGWYRQAPGKDRELVATISSGGSTNYADSVKGRFTISRDNAKNTVYLQMNSLKPEDTAVYYCNKDITGVLLWIWWDRYDYWGQGTQVTVSS”: “high polyreactivity”.
Consider “QVQLVESGGGLVQAGGSLRLSCAASGLTFVPNAMGWYRQAPGKERELVAAISNNGGRTYYADSVKGRFTISRDNAKNTVYLQMNSLKPEDTAVYYCAKYLSPGERHSYDYWGQGTQVTVSS”, for which the “polyreactivity (PSR sort gate)” value was “high polyreactivity”.
